*1 amine or outer side, *2 acyl side, *3 side chain or, on linkers, in order; H or OH if unused. [ ]: non-standard residue; d: D form. 3AzaPhe4AcPip = (S)-3-(6-(4-acetylpiperazin-1-yl)pyridin-3-yl)-2-aminopropanoic acid, CC(=O)N1CCN(c2ccc(C[C@H](N[*:1])C(=O)[*:2])cn2)CC1; Prot4NHBn = (2S,4R)-4-(benzylamino)pyrrolidine-2-carboxylic acid, O=C([C@@H]1C[C@@H](N(Cc2ccccc2)[*:3])CN1[*:1])[*:2]; Pro(trans-4-NH2) = O=C([C@@H]1C[C@@H](N[*:3])CN1[*:1])[*:2]; Trp(βS-Me,4-F) = C[C@@H](c1c[nH]c2cccc(F)c12)[C@H](N)C(=O)O; Bip(4'-COOH) = N[C@@H](Cc1ccc(-c2ccc(C(=O)O)cc2)cc1)C(=O)O; 1Nal(3S-Me) = C[C@@H](c1cccc2ccccc12)[C@H](N)C(=O)O; mBip = (S)-2-amino-3-(3-phenylphenyl)propanoic acid; Phe(3-allyloxy) = C=CCOc1cccc(C[C@H](N)C(=O)O)c1; Phe(4-COOH) = N[C@@H](Cc1ccc(C(=O)O)cc1)C(=O)O; hTyr = N[C@@H](CCc1ccc(O)cc1)C(=O)O; dDab = NCC[C@@H](N)C(=O)O; dNMeA = CN[C@H](C)C(=O)O; Nva = CCC[C@H](N)C(=O)O; Dap = NC[C@H](N)C(=O)O
molecular target: Recombinant human IL-1β (BioLegend 579404) (human, UniProt P01584 117-269); test: cell-based or functional assay

Binder	MRC5 IC50 [nM]
cyclo([Bip(4'-COOH)]W[Phe(4-COOH)]G[Pro(trans-4-NH2)][Trp(βS-Me,4-F)]D[dNMeA]G[Bip(4'-COOH)]WG[dDab][hTyr]) (SMILES C[C@@H]1C(=O)NCC(=O)N[C@@H](Cc2ccc(-c3ccc(C(=O)O)cc3)cc2)C(=O)N[C@@H](Cc2c[nH]c3ccccc23)C(=O)NCC(=O)N[C@H](CCN)C(=O)N[C@@H](CCc2ccc(O)cc2)C(=O)N[C@@H](Cc2ccc(-c3ccc(C(=O)O)cc3)cc2)C(=O)N[C@@H](Cc2c[nH]c3ccccc23)C(=O)N[C@@H](Cc2ccc(C(=O)O)cc2)C(=O)NCC(=O)N2C[C@H](N)C[C@H]2C(=O)N[C@@H]([C@@H](C)c2c[nH]c3cccc(F)c23)C(=O)N[C@@H](CC(=O)O)C(=O)N1C) [SEQ ID NO: 77]	0.0601
cyclo([Bip(4'-COOH)]W[Phe(4-COOH)]G[Pro(trans-4-NH2)][Trp(βS-Me,4-F)]N[dNMeA]G[Bip(4'-COOH)]KL[dDab][hTyr]) (SMILES CC(C)C[C@@H]1NC(=O)[C@H](CCCCN)NC(=O)[C@H](Cc2ccc(-c3ccc(C(=O)O)cc3)cc2)NC(=O)CNC(=O)[C@@H](C)N(C)C(=O)[C@H](CC(N)=O)NC(=O)[C@H]([C@@H](C)c2c[nH]c3cccc(F)c23)NC(=O)[C@@H]2C[C@@H](N)CN2C(=O)CNC(=O)[C@H](Cc2ccc(C(=O)O)cc2)NC(=O)[C@H](Cc2c[nH]c3ccccc23)NC(=O)[C@H](Cc2ccc(-c3ccc(C(=O)O)cc3)cc2)NC(=O)[C@H](CCc2ccc(O)cc2)NC(=O)[C@@H](CCN)NC1=O) [SEQ ID NO: 81]	0.255
cyclo([Bip(4'-COOH)]W[Phe(4-COOH)]G[Pro(trans-4-NH2)][Trp(βS-Me,4-F)]D[dNMeA]G[Bip(4'-COOH)][Phe(3-allyloxy)]L[dA][hTyr]) (SMILES C=CCOc1cccc(C[C@@H]2NC(=O)[C@H](Cc3ccc(-c4ccc(C(=O)O)cc4)cc3)NC(=O)CNC(=O)[C@@H](C)N(C)C(=O)[C@H](CC(=O)O)NC(=O)[C@H]([C@@H](C)c3c[nH]c4cccc(F)c34)NC(=O)[C@@H]3C[C@@H](N)CN3C(=O)CNC(=O)[C@H](Cc3ccc(C(=O)O)cc3)NC(=O)[C@H](Cc3c[nH]c4ccccc34)NC(=O)[C@H](Cc3ccc(-c4ccc(C(=O)O)cc4)cc3)NC(=O)[C@H](CCc3ccc(O)cc3)NC(=O)[C@@H](C)NC(=O)[C@H](CC(C)C)NC2=O)c1) [SEQ ID NO: 76]	0.122
cyclo([3AzaPhe4AcPip]W[Phe(4-COOH)]G[Pro(trans-4-NH2)][Trp(βS-Me,4-F)]D[dNMeA]G[Bip(4'-COOH)]WG[dDab][hTyr]) (SMILES CC(=O)N1CCN(c2ccc(C[C@@H]3NC(=O)[C@H](CCc4ccc(O)cc4)NC(=O)[C@@H](CCN)NC(=O)CNC(=O)[C@H](Cc4c[nH]c5ccccc45)NC(=O)[C@H](Cc4ccc(-c5ccc(C(=O)O)cc5)cc4)NC(=O)CNC(=O)[C@@H](C)N(C)C(=O)[C@H](CC(=O)O)NC(=O)[C@H]([C@@H](C)c4c[nH]c5cccc(F)c45)NC(=O)[C@@H]4C[C@@H](N)CN4C(=O)CNC(=O)[C@H](Cc4ccc(C(=O)O)cc4)NC(=O)[C@H](Cc4c[nH]c5ccccc45)NC3=O)cn2)CC1) [SEQ ID NO: 8]	0.14
cyclo([Bip(4'-COOH)]W[Phe(4-COOH)]G[Pro(trans-4-NH2)][Trp(βS-Me,4-F)]N[dNMeA]G[Bip(4'-COOH)]KL[dA][hTyr]) (SMILES CC(C)C[C@@H]1NC(=O)[C@H](CCCCN)NC(=O)[C@H](Cc2ccc(-c3ccc(C(=O)O)cc3)cc2)NC(=O)CNC(=O)[C@@H](C)N(C)C(=O)[C@H](CC(N)=O)NC(=O)[C@H]([C@@H](C)c2c[nH]c3cccc(F)c23)NC(=O)[C@@H]2C[C@@H](N)CN2C(=O)CNC(=O)[C@H](Cc2ccc(C(=O)O)cc2)NC(=O)[C@H](Cc2c[nH]c3ccccc23)NC(=O)[C@H](Cc2ccc(-c3ccc(C(=O)O)cc3)cc2)NC(=O)[C@H](CCc2ccc(O)cc2)NC(=O)[C@@H](C)NC1=O) [SEQ ID NO: 80]	0.291
cyclo([Bip(4'-COOH)]W[Phe(4-COOH)]G[Pro(trans-4-NH2)][Trp(βS-Me,4-F)]D[dNMeA]G[Bip(4'-COOH)]WL[dA][hTyr]) (SMILES CC(C)C[C@@H]1NC(=O)[C@H](Cc2c[nH]c3ccccc23)NC(=O)[C@H](Cc2ccc(-c3ccc(C(=O)O)cc3)cc2)NC(=O)CNC(=O)[C@@H](C)N(C)C(=O)[C@H](CC(=O)O)NC(=O)[C@H]([C@@H](C)c2c[nH]c3cccc(F)c23)NC(=O)[C@@H]2C[C@@H](N)CN2C(=O)CNC(=O)[C@H](Cc2ccc(C(=O)O)cc2)NC(=O)[C@H](Cc2c[nH]c3ccccc23)NC(=O)[C@H](Cc2ccc(-c3ccc(C(=O)O)cc3)cc2)NC(=O)[C@H](CCc2ccc(O)cc2)NC(=O)[C@@H](C)NC1=O) [SEQ ID NO: 78]	0.0732
cyclo([Bip(4'-COOH)]W[Phe(4-COOH)]G[Prot4NHBn][1Nal(3S-Me)]D[dNMeA]G[Bip(4'-COOH)]W[Dap][dA][hTyr]) (SMILES C[C@@H]1C(=O)NCC(=O)N[C@@H](Cc2ccc(-c3ccc(C(=O)O)cc3)cc2)C(=O)N[C@@H](Cc2c[nH]c3ccccc23)C(=O)N[C@@H](CN)C(=O)N[C@H](C)C(=O)N[C@@H](CCc2ccc(O)cc2)C(=O)N[C@@H](Cc2ccc(-c3ccc(C(=O)O)cc3)cc2)C(=O)N[C@@H](Cc2c[nH]c3ccccc23)C(=O)N[C@@H](Cc2ccc(C(=O)O)cc2)C(=O)NCC(=O)N2C[C@H](NCc3ccccc3)C[C@H]2C(=O)N[C@@H]([C@@H](C)c2cccc3ccccc23)C(=O)N[C@@H](CC(=O)O)C(=O)N1C) [SEQ ID NO: 82]	0.0157
cyclo([Bip(4'-COOH)]W[Phe(4-COOH)]G[Pro(trans-4-NH2)][Trp(βS-Me,4-F)]D[dNMeA]G[Bip(4'-COOH)][mBip]L[dA][hTyr]) [SEQ ID NO: 75]	0.165
cyclo([Bip(4'-COOH)]W[Phe(4-COOH)]G[Pro(trans-4-NH2)][Trp(βS-Me,4-F)]D[dNMeA]G[Bip(4'-COOH)]W[Nva][dA]A) (SMILES CCC[C@@H]1NC(=O)[C@H](Cc2c[nH]c3ccccc23)NC(=O)[C@H](Cc2ccc(-c3ccc(C(=O)O)cc3)cc2)NC(=O)CNC(=O)[C@@H](C)N(C)C(=O)[C@H](CC(=O)O)NC(=O)[C@H]([C@@H](C)c2c[nH]c3cccc(F)c23)NC(=O)[C@@H]2C[C@@H](N)CN2C(=O)CNC(=O)[C@H](Cc2ccc(C(=O)O)cc2)NC(=O)[C@H](Cc2c[nH]c3ccccc23)NC(=O)[C@H](Cc2ccc(-c3ccc(C(=O)O)cc3)cc2)NC(=O)[C@H](C)NC(=O)[C@@H](C)NC1=O) [SEQ ID NO: 79]	0.189
